{"source": "paper PMC6929169", "about": "“Functional Characteristics of Caffeoyl Shikimate Esterase in Larix Kaempferi and Monolignol Biosynthesis in Gymnosperms” (International Journal of Molecular Sciences, 2019)", "proteins": {"B1": {"name": "LkCSE (Larix kaempferi) (protein)", "chain": "MSAVEKPAAPPNFWGEMPEEEYYASQGVKNHQERFETPHGILFTQSWIPIEGPVKGIVCMTHGYGSDTGWLFQKISITYAQWGYAVFGADLLGHGRSDGLRCYMGDMEKIAAASLFFFKAMRDSEPYKGLPAFLFGESMGGATTLLMYFQDPDGWSGLIFSAPLFVMPEPMKPSWWRLTAYGLLFGLADTWAVMPDNKMVKKAIKDPEKLKIIASNPRRYTGPPRVGTMRELCRICAFFQENFEKVTIPFLTCHGTSDEVTAPQSSTDLYEKAKSEDKTLKLYDDMYHSLIQGEPDENANQVLADMREWLDARASRTSS"}}, "substrate": "O=C(/C=C/c1ccc(O)c(O)c1)O[C@@H]1CC(C(=O)O)=C[C@@H](O)[C@H]1O", "test": "HPLC-MS of caffeic acid formed, Michaelis-Menten fit", "assay_type": "biochemical, Larix kaempferi", "conditions": "100 mM NaPO4 buffer pH 6.0, 500 μM dithiothreitol, 0–320 μM substrate, 1 μg enzyme in 100 μL, temperature of kinetics not given", "data": [{"protein": "B1", "values": [{"measurement": "Km", "value": 82.08, "unit": "µM"}]}]}
